The values that follow come from publication PMC6294747, “Plasmodium falciparum infected erythrocytes can bind to host receptors integrins αVβ3 and αVβ6 through DBLδ1_D4 domain of PFL2665c PfEMP1 protein” (Scientific Reports, 2018).

For experiment [1], the target named is T1, integrin αVβ3 (R&D Systems, Cat #3050-AV) (human, UniProt P06756 31-1048; P05106 27-718, biotinylated (for the bead assays; sites not stated) | biotinylated (for the bead assays; sites not stated)).
T1 construct: integrin alpha-V chain of soluble recombinant αVβ3; integrin beta-3 chain of soluble recombinant αVβ3; Molecular weight 191.3 kDa according to the manufacturer; Biotinylated when used in solution on beads; immobilised on Petri dishes for the adhesion assays; also called αVβ3 integrin; soluble recombinant αVβ3; source: bought: R&D Systems, Cat #3050-AV
Description: Bio-Plex bead binding assay, initial velocities with Lineweaver-Burk plot; avidity constants; beads with immobilised PFL2665c DBLδ1_D4; biotinylated integrin at 3, 6 and 12 µg/ml, 0, 10, 30 min (αVβ3) or 0, 5, 15 min (αVβ6); 1xTBS, 1 mM CaCl2, 1 mM MgCl2; streptavidin-PE; corrected for HisAdEx. The note with it: both partners purified.

In experiment [2] the target is T2, integrin αVβ6 (R&D Systems, Cat #3817-AV) (UniProt P06756 31-1048; P18564 22-709, biotinylated (for the bead assays; sites not stated) | biotinylated (for the bead assays; sites not stated)).
T2 construct: integrin alpha-V chain of soluble recombinant αVβ6; integrin beta-6 chain of soluble recombinant αVβ6; Molecular weight 189.1 kDa according to the manufacturer; Biotinylated when used in solution on beads; immobilised on Petri dishes for the adhesion assays; also called recombinant αVβ6; source: bought: R&D Systems, Cat #3817-AV
Described as above. The note with it: both partners purified.

B1: DBLδ1_D4 domain of PFL2665c PfEMP1 (single domain) (domain or fragment)
chain: GDDLKQACSTKYGPKAPTSWKCVPSGVSTATSGEGGDAKSRERREAGVPTATSSGNTTGGGKDGATGGSICVPPRRRRLYVGGLTKWAKKYTGNTGESKSQEGVLQTKAVVDGKANAEGGGQKGARGPNGGTEGANSGKGAQQQQEQQQEQQQEQQQQQQQQQQQQPHSTDSSSSPPSSNPRDVDLRNAFVESAAIETFFLWDRYKKEKEKEKEDIEKNGQDTVAYTSSVEKDPQEELQRGDIPDGFLRQMFYTLGDYRDILYSGDKENGNKYMLVDDIKDISDKIKSILNSDVGQKTTAKQWWDDNGQHIWNGMIYALTYNTDTPSGDKPTQIDEVRAQLWDEKEKKPKKTDNDHDYTYENVELKEDDDQSGAKTPSASSGSNDPINNPQLSDFVEIPTYFRWLHEWGSDFCGTRKRMLGKIKHECRGDKVCSGYGENCDDQLKDNPSIFPSLNCPSCGTPCRYYKKWINTKKTEYDKQKSAYEQQQGKCEKENNGAEGNDHDKKFCTRIQNCNEAKDFLKTLGPCRTNDESGKGTLYFDDDTFKH
With B1, the Kd is 62 nM in experiment [1] and 56.4 nM in experiment [2].
